Data taken from patent publication US20220348668A1 (UNIVERSITE DE FRANCHE COMTE, published 2022).

T1: CD123 (protein in solution in the Octet affinity assay) (human, UniProt P26951 19-305, limits assumed)
T1 construct: also called IL-3Rα; Interleukine-3 Receptor alpha
T1 sequence (looked up): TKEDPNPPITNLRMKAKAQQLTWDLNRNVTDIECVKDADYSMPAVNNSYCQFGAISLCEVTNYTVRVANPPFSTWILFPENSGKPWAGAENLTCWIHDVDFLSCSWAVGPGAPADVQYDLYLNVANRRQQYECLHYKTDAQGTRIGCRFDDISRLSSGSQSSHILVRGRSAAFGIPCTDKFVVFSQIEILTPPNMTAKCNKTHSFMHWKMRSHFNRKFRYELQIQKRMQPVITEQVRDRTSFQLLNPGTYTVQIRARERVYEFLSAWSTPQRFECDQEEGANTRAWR


Assays:
[1] = target: CD123 on cells and tissues (CAL-1, GEN 2.2, PDX and primary BPDCN cells, normal pDC, monocytes, CD34+ cells, endothelial cells) (human) (UniProt P26951); assay: flow cytometry on normal pDC; mean [minimum-maximum]
[2] = target: CD123 on cells and tissues (CAL-1, GEN 2.2, PDX and primary BPDCN cells, normal pDC, monocytes, CD34+ cells, endothelial cells) (human) (UniProt P26951); assay: flow cytometry on CD34+ cells; mean [minimum-maximum]
[3] = target: CD123 on cells and tissues (CAL-1, GEN 2.2, PDX and primary BPDCN cells, normal pDC, monocytes, CD34+ cells, endothelial cells) (human) (UniProt P26951); assay: flow cytometry on BPDCN cells; mean [minimum-maximum]
[4] = target: CD123 on cells and tissues (CAL-1, GEN 2.2, PDX and primary BPDCN cells, normal pDC, monocytes, CD34+ cells, endothelial cells) (human) (UniProt P26951); assay: flow cytometry, MFIR = MFI of CD123 staining / MFI of isotype control mAb; cells: monocytes, n=12; mean [min-max]
[5] = target: CD123 on cells and tissues (CAL-1, GEN 2.2, PDX and primary BPDCN cells, normal pDC, monocytes, CD34+ cells, endothelial cells) (human) (UniProt P26951); assay: flow cytometry on monocytes; mean [minimum-maximum]
[6] = target: CD123 on cells and tissues (CAL-1, GEN 2.2, PDX and primary BPDCN cells, normal pDC, monocytes, CD34+ cells, endothelial cells) (human) (UniProt P26951); assay: flow cytometry, MFIR = MFI of CD123 staining / MFI of isotype control mAb; cells: BPDCN, n=3; mean [min-max]
[7] = target: CD123 on cells and tissues (CAL-1, GEN 2.2, PDX and primary BPDCN cells, normal pDC, monocytes, CD34+ cells, endothelial cells) (human) (UniProt P26951); assay: flow cytometry on endothelial HMEC cell line; mean [minimum-maximum]
[8] = target: CD123 on cells and tissues (CAL-1, GEN 2.2, PDX and primary BPDCN cells, normal pDC, monocytes, CD34+ cells, endothelial cells) (human) (UniProt P26951); assay: flow cytometry, MFIR = MFI of CD123 staining / MFI of isotype control mAb; cells: CD34 cells, n=7; mean [min-max]
[9] = target: CD123 on cells and tissues (CAL-1, GEN 2.2, PDX and primary BPDCN cells, normal pDC, monocytes, CD34+ cells, endothelial cells) (human) (UniProt P26951); assay: flow cytometry, MFIR = MFI of CD123 staining / MFI of isotype control mAb; cells: lymphocytes, n=12; mean [min-max]
[10] = target: CD123 on cells and tissues (CAL-1, GEN 2.2, PDX and primary BPDCN cells, normal pDC, monocytes, CD34+ cells, endothelial cells) (human) (UniProt P26951); assay: flow cytometry, MFIR = MFI of CD123 staining / MFI of isotype control mAb; cells: polynuclear cells, n=5; mean [min-max]
[11] = target: CD123 on cells and tissues (CAL-1, GEN 2.2, PDX and primary BPDCN cells, normal pDC, monocytes, CD34+ cells, endothelial cells) (human) (UniProt P26951); assay: flow cytometry, MFIR = MFI of CD123 staining / MFI of isotype control mAb; cells: normal pDC, n=7; mean [min-max]
[12] = target: T1, CD123 (protein in solution in the Octet …); assay: BLI (Octet), antibody on streptavidin biosensor, CD123 50 nM
Method: (§1) Affinity of the antibodies of the invention to CD123 is tested on streptavidin biosensors. Herein, to determine KD values seven different concentrations of CD123 were used on immobilized antibodies of the invention. The results were analyzed according to the Octet system available at FortéBio.

[13] = target: T1, CD123 (protein in solution in the Octet …); assay: BLI (Octet), antibody on streptavidin biosensor, CD123 in solution
Method: as §1

[14] = target: T1, CD123 (protein in solution in the Octet …); assay: BLI (Octet), antibody on streptavidin biosensor, CD123 25 nM
Method: as §1

[15] = target: T1, CD123 (protein in solution in the Octet …); assay: BLI (Octet), antibody on streptavidin biosensor, CD123 6.25 nM
Method: as §1

[16] = target: T1, CD123 (protein in solution in the Octet …); assay: BLI (Octet), antibody on streptavidin biosensor, CD123 12.5 nM
Method: as §1

Molecule | MFI [1] | MFI [2] | MFI [3] | MFIR [4] | MFI [5] | MFIR [6] | MFI [7] | MFIR [8] | MFIR [9] | MFIR [10] | MFIR [11] | Response [12] | Kd [13] [nM] | koff [13] [s⁻¹] | kon [13] [M⁻¹ s⁻¹] | Response [14] | Response [15] | Response [16]
6H6 commercial antiCD123 antibody | 34400 | 874 | 11700 | 3.3 | 1700 | 42.2 | 1250 | 8 | 2.2 | 1.5 | 210 |  |  |  |  |  |  | 
11B6E6 (antibody, V domains shown, Mouse hybridoma monoclonal antibody; also called AB3) VH: QVKLEESGPGLVAPSQSLSITCTVSGFSLTSYDISWIRQPPGKGLEWLGVIWTGGGTNYNSAFMSRLSISKDNSKSQVFLKMFSLQTDDTAIYYCVRAHGYYFAMDYWGQGTSVTVSS VL: DIVLTQSPSSLAVSAGEKVTMRCKSSQSLLNSSTRKNYLAWYQQKPGQSPKLLIYWASTRESGVPDRFTGSGSGTDFTLTISSVQAEDLAVYYCKQSYNLFTFGSGTKLEIKR |  |  |  |  |  |  |  |  |  |  |  | 0.316 | 9.37 | 0.000657 | 70100 | 0.179 | 0.0349 | 0.0895
14G12D7 (antibody, V domains shown, Mouse hybridoma monoclonal antibody; also called AB4) VH: EVQLQESGPGLVKPSQSLSLTCTVTGYSVTSDYAWNWIRQFPGNKLEWMGYIIYSGTTSYNPSLKSRISITRDTSKNQFFLQLNSVTTEDTATYYCTRGVDYWGQGTTLTVSS VL: DIVLTQSPAIMSASPGEKVTMTCRASSSVRSSYLHWYQQKSGASPKLWIYSTSNLASGVPARFSGSGSGTSYSLTISSVEAEDAATYYCLQFSGYPFTFGGGTKLEIKR |  |  |  |  |  |  |  |  |  |  |  | 0.221 | 8.84 | 0.000325 | 36700 | 0.134 |  | 

Second part, the molecule after the results:

MFI [1] | MFI [2] | MFI [3] | MFIR [4] | MFI [5] | MFIR [6] | MFI [7] | MFIR [8] | MFIR [9] | MFIR [10] | MFIR [11] | Response [12] | Kd [13] [nM] | koff [13] [s⁻¹] | kon [13] [M⁻¹ s⁻¹] | Response [14] | Response [15] | Response [16] | Molecule
 |  |  |  |  |  |  |  |  |  |  |  | 2.48 | 0.000826 | 332000 | 0.305 | 0.0878 | 0.155 | 15E11B7 (antibody, V domains shown, Mouse hybridoma monoclonal antibody; also called AB6) VH: EVQLEQSGPELVKPGDSVKISCKASGYSFTGYFMNWVKQSHGKSLEWIGRINPYNDYTFNNQKFKDKATLTVDKSSSTAHMELLSLTSEDSAVYYCGGGVRGAWFAFWGQGTLVTVSE VL: DIVLTQSTTSLAVSLGQRATISCRASKSVSTSGYNYMHWYQQKPGQPPKLLIYLASNLESGVPARFSGSGSGTDFTLNIHPVEEEDAATYYCQHSADLPYTFGGGTKLEIKR
 |  |  |  |  |  |  |  |  |  |  |  | < 0.001 | < 1e-07 | 326000 |  | 0.281 | 0.416 | 11A12C6 (antibody, V domains shown, Mouse hybridoma monoclonal antibody; also called AB5) VH: QVQLKESGPGLVAPSQSLSITCTVSGFSLTSYDINWIRQTPGKGLEWLGVIWTGGGTNYNSAFMSRLSISRDNSKSQVFLKMNSLQTDDTAIYYCVRGDGYYWYFDVWGAGTTVTVSS VL: IVMTQSPSSLAVSAGEKVTMSCKSSQSLFSSSARKNYLAWYQQRPGQSPKLLIYWASTRESGVPDRFTGSGSGTDFTLTIGSVQAEDLAVYYCKQSYSLFTFGSGTKLEIKR
 |  |  |  |  |  |  |  |  |  |  | 0.507 | 2.55 | 0.000882 | 346000 | 0.34 | 0.149 | 0.265 | 17F7B2 (antibody, V domains shown, Mouse hybridoma monoclonal antibody; also called AB2) VH: EVQLQQSGTVLARPGASVKMSCKASGYSFTSYWMHWVKQRPGQGLEWIGAFYPGKSDTTYNQKFKGKAKLTAVTSASTAYMELSSLTNEDSAVYYCTKGYRYDWFAYWGQGTLVTVSA VL: DVVMTQTPLSLPVSLGDQASISCRSSQSLVHSNGITYLHWYLQKPGQSPKLLIYKVSNRFSGVPDRFSGSGSGTDFTLKISRVEAEDLGVYFCSQNTHVPFTFGSGTKLEIKR
 |  |  |  |  |  |  |  |  |  |  | 0.697 | < 0.001 | < 1e-07 | 122000 | 0.42 | 0.12 | 0.23 | 18B4D5 (antibody, V domains shown, Mouse hybridoma monoclonal antibody; The tie uses 'at least 85% identity' wording; also called AB1; antiCD123 B4D5) VH: EVKLQESGPGLVKPSQSLSLTCTVTGYSITSDYTWNWIRQFPGNKLEWMGYISFSGSTSYNPSLKSRLSITRDTSKNQFFLQLNSVTTEDTATYYCARGLDYWGQGTTLTVSS VL: DIVMTQSPAIMSASLGERVTMTCTASSSISSSYLYWYQQKPGSSPKLWIYSTSNLASGVPARFSGSGSGTSYSLTISSMEAEDAATYYCHQLHRSPWTFGGGTKLEIKR
